B1: Histone deacetylase 3 (Homo sapiens), O15379 (parent)
chain: MAKTVAYFYDPDVGNFHYGAGHPMKPHRLALTHSLVLHYGLYKKMIVFKPYQASQHDMCRFHSEDYIDFLQRVSPTNMQGFTKSLNAFNVGDDCPVFPGLFEFCSRYTGASLQGATQLNNKICDIAINWAGGLHHAKKFEASGFCYVNDIVIGILELLKYHPRVLYIDIDIHHGDGVQEAFYLTDRVMTVSFHKYGNYFFPGTGDMYEVGAESGRYYCLNVPLRDGIDDQSYKHLFQPVINQVVDFYQPTCIVLQCGADSLGCDRLGCFNLSIRGHGECVEYVKSFNIPLLVLGGGGYTVRNVARCWTYETSLLVEEAISEELPYSEYFEYFAPDFTLHPDVSTRIENQNSRQYLDQIRQTIFENLKMLNHAPSVQIHDVPADLLTYDRTDEADAEERGPEENYSRPEAPNEFYDGDHDNDKESDVEI
partner: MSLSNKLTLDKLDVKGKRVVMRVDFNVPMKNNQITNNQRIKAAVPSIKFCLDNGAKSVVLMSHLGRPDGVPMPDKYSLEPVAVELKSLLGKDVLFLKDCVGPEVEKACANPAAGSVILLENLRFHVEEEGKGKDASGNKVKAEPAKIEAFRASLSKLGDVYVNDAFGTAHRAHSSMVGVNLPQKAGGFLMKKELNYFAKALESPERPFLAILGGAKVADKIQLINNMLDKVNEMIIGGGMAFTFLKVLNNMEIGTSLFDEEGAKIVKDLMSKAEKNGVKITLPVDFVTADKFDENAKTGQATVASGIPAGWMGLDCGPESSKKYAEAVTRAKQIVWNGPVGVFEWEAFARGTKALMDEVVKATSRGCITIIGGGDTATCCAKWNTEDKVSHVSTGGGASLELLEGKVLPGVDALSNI

Variants of: B1
Conditions: with pgk1_human PGK1, P00558

Variant	effect of a mutation on the interaction
S424A	decreasing interaction strength

Variants of: B1
Conditions: with PGK1, P00558-1

Variant	effect of a mutation on the interaction
S424A	decreasing interaction strength

Source: IntAct's records for PubMed 26356530
